In patent publication US12564617B2, “Methods for modulating macrophage activity” (Riptide Bioscience, Inc., priority 2019, dated 2026):

Molecular target: T1, recombinant mouse CD206 full length protein (Mus musculus, UniProt Q61830)
T1 construct: honeybee melittin signal peptide (N); host or cells: Expi293E cells
T1 sequence (Q61830 23-1387): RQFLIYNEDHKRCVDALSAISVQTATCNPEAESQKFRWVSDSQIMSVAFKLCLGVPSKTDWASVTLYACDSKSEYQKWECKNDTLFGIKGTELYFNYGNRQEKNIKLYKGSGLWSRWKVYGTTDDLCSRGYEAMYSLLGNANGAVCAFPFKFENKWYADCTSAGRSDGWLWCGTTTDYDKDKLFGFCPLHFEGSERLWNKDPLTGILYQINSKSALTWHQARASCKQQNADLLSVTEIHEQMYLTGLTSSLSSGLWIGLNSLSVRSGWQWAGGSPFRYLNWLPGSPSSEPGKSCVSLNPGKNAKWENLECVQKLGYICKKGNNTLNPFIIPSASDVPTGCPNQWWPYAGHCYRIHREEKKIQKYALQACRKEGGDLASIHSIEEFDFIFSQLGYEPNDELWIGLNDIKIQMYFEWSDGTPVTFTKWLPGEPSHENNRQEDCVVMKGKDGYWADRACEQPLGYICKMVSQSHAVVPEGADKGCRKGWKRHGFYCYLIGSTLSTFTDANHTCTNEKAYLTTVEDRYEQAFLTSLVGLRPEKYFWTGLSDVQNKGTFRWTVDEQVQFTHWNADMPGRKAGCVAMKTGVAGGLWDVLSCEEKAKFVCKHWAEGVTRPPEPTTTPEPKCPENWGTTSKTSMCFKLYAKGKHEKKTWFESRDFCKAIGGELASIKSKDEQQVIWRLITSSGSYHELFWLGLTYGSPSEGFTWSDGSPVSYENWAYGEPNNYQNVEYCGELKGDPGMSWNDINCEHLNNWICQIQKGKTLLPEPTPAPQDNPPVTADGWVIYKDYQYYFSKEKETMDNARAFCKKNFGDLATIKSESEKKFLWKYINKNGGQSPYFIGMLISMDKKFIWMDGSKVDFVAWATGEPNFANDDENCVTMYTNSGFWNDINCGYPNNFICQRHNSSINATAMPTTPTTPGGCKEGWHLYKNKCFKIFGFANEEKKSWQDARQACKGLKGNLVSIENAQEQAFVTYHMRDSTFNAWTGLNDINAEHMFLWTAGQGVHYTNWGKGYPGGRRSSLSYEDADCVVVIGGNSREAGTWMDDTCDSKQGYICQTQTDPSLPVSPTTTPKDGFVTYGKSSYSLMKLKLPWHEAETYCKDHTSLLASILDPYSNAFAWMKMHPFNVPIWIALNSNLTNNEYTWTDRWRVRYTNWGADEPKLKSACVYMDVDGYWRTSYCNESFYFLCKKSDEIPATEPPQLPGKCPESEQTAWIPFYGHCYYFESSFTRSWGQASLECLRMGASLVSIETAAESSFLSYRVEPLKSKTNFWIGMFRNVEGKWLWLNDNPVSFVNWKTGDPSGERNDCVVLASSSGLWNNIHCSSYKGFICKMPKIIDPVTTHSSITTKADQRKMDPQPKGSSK
Assay: Negative stain electron microscopy of open vs closed CD206 conformation
Assay type: biochemical
Conditions: negative stain EM
Protocol: A 3 μL aliquot containing ˜0.01 mg/mL of the sample was applied for 20 seconds onto a carbon-coated 200 Cu mesh grid that had been glow discharged at 30 mA for 30 sec, then negatively stained with 0.7% (w/v) uranyl formate for 40 sec. […] Images were acquired with an Eagle 2k×2k CCD camera (http://FEI.com) using a nominal defocus of 1500 nm and the SerialEM software (54). […] Images were acquired with a Ceta 4k×4k CCD camera (http://FEI.com) using a nominal defocus of 1200 nm and the EPU software. For electron microscopy data processing, particles were selected from the micrographs, extracted, and a reference-free 2D class averages were obtained using RELION 2.1.0. Microscale thermophoresis and cellular thermal shift assays.

## FFRKSKEKIG [LL37F1, 10mer motif from cathelicidin antimicrobial peptide [Homo sapiens]]
  closed vs open conformation of CD206: lower ratios of closed-to-open conformations

## EKLSAFRNFF [AVP1]
  closed vs open conformation of CD206: lower ratios of closed-to-open conformations
